# Measured values taken from patent publication US20110250670A1, “LIGHT ENERGY-INDUCED STABILITY OF BIOMATERIALS” (University of Calcutta, priority 2010, published 2011).
# B1: citrate synthase (protein, UniProt P00889 28-464, looked up)
# Citrate synthase, …: ASSTNLKDILADLIPKEQARIKTFRQQHGNTVVGQITVDMMYGGMRGMKGLVYETSVLDPDEGIRFRGYSIPECQKMLPKAKGGEEPLPEGLFWLLVTGQIPTEEQVSWLSKEWAKRAALPSHVVTMLDNFPTNLHPMSQLSAAITALNSESNFARAYAEGIHRTKYWELIYEDCMDLIAKLPCVAAKIYRNLYREGSSIGAIDSKLDWSHNFTNMLGYTDAQFTELMRLYLTIHSDHEGGNVSAHTSHLVGSALSDPYLSFAAAMNGLAGPLHGLANQEVLVWLTQLQKEVGKDVSDEKLRDYIWNTLNSGRVVPGYGHAVLRKTDPRYTCQREFALKHLPHDPMFKLVAQLYKIVPNVLLEQGKAKNPWPNVDAHSGVLLQYYGMTEMNYYTVLFGVSRALGVLAQLIWSRALGFPLERPKSMSTDGLIKLVDSK
# notes: a beta sheet-rich enzyme which readily aggregates by thermal treatment at 45° C; purchased from Sigma-Aldrich
# What was measured:
# Type in all cases: physicochemical
# [1] = Thermal aggregation of hemoglobin (absorption/scattering at 360 nm); details: 0.1 mg/ml, 60° C., 20 min, He-Ne laser 632.8 nm, 0.63 watts/cm^2
# Text: (§1) In this Example, the effects of light energy on the aggregation of a labile biomolecule in aqueous solution were examined. The device included a heating element and a laser, as depicted in FIG. 2. The laser operated at 632.8 nm, in the red portion of the spectrum, with a power density of 0.63 watts/cm^2. The 180 degree scattering at 360 nm (in terms of OD at 360 nm) was taken to measure the extent of aggregation because it is well-known that this scattering is a measure of the propensity of a protein to form aggregate. Aggregation of proteins of the reference samples was taken as 100% and the aggregation of laser-treated proteins in the test samples was calculated relative to the 100% aggregation of the reference samples.
# Thermal aggregation of hemoglobin. Hemoglobin was purchased from Sigma-Aldrich (St. Louis, Mo.) and a 0.5 mg/ml stock solution was prepared by mixing with 100 mM phosphate buffer solution of pH 7.2. The aggregation of a 0.1 mg/ml hemoglobin solution was observed by measuring the absorption of radiation of 360 nm wavelength with a time duration of 20 min in a Perkin Elmer spectrophotometer at 60° C. Test samples were irradiated with He—Ne laser having power density is 0.63 watts/cm^2 and operating at a wavelength 632.8 nm. A control sample was subjected to identical conditions expect laser irradiation was not performed. […]
# [2] = Dynamic light scattering of hemoglobin; details: heated at 60° C. for 20 min without red laser light
# Procedure: FIG. 4 represents the dynamic light scattering pattern of protein hemoglobin in the presence and absence of red laser light at 60° C. The hydrodynamic diameter of hemoglobin at 25° C. is 5.6 nm. When this protein solution was heated at 60° C. without red laser light for 20 min, the hydrodynamic diameter increases to 4801.0 nm. However, in the presence of red laser light the diameter increases to only 255.0 nm.
# [3] = Dithiothreitol induced aggregation of insulin (absorption at 360 nm); details: 0.1 mg/ml, DTT 20 mM, 40° C., He-Ne laser 632.8 nm, 0.63 watts/cm^2
# Text: as §1
# Dithiothreitol induced aggregation of insulin. Insulin was purchased from ICN and a stock solution of insulin (0.5 mg/ml) was prepared by mixing with 100 mM phosphate buffer of pH 7.2. Disulphide linkages of insulin (0.1 mg/ml) were reduced by dithiothreitol (DTT, 20 mM), which leads aggregation of insulin at 40° C. This aggregation of protein was measured by absorption at 360 nm after heat treatment at 40° C. in a Perkin Elmer spectrophotometer. Aggregation of insulin was measured in the presence and in the absence of laser light. Test samples were irradiated with a He—Ne laser having power density is 0.63 watts/cm^2 and operating at a wavelength 632.8 nm. […]
# [4] = Thermal aggregation of citrate synthase (OD at 360 nm); details: for change in aggregation upon laser exposure: FIG. 5
# Text: as §1
# Thermal Aggregation of Citrate Synthase. Citrate synthase was purchased from Sigma-Aldrich and a 0.5 mg/ml stock solution was prepared by mixing with 100 mM phosphate buffer solution of pH 7.2. Citrate synthase was readily converted to its aggregated state from a native state at 45° C. The aggregation profile of the protein (0.1 mg/ml) was measured by measuring optical density (OD) at 360 nm in a Perkin Elmer spectrophotometer in 100 mM phosphate buffer of pH 7.2. Test samples were irradiated with a He—Ne laser having power density is 0.63 Watt/cm^2 and operating at a wavelength 632.8 nm. A control sample was subjected to identical conditions expect that laser irradiation was not performed. The results are shown in FIG. 3 and indicate that irradiation with laser light reduced the formation of protein aggregates by about 40% compared to an non-irradiated control sample.
# A comparative study showing the effect of the power of the red laser on the aggregation of citrate synthase was conducted. Thermal aggregation of citrate synthase was determined by measuring absorption of radiation of 360 nm wavelength at 45° C. Aggregation of control samples (in absence of laser treatment) was considered as 100% aggregation while aggregation of the treated protein of the test samples was calculated relative to the 100% aggregation of the control samples. […] Thus, increasing the energy input to the test samples beyond that needed to increase the activation energy for unfolding the protein appears to generate heat energy that increases aggregation. As such, suitable methods for preventing protein aggregation use a low-power red laser.
molecule,measurement,setting,value
hemoglobin,reduction of formation of hemoglobin aggregates compared to non-irradiated control,[1],about 25%
same,hydrodynamic diameter,[2],4801.0 nm
insulin,reduction of formation of insulin aggregates compared to non-irradiated control,[3],about 10%
B1,reduction of formation of protein aggregates compared to non-irradiated control,"[4]; 0.1 mg/ml, 45° C., He-Ne laser 632.8 nm, 0.63 Watt/cm^2",about 40%
same,aggregation relative to control samples (100%),"[4]; 45° C., red laser 15 mW, 1.9 watts/cm^2",approximately 145%
same,aggregation relative to control samples (100%),"[4]; 45° C., red laser 632.8 nm, 5 mW, 0.63 watts/cm^2",60%
same,change in aggregation upon laser exposure,[4]; high power (15 mW) red laser,increase in aggregation
same,change in aggregation upon laser exposure,[4]; low power (5 mW) red laser,decrease in the aggregation
